Measurements taken from US20220098266A1 (AKSTON BIOSCIENCES, published 2022).
Where a chain is given by its changes, count along the chain named.

Molecular target: T1, human insulin receptor on human IM-9 cells (human, UniProt P06213 28-1382)
T1 construct: whole, on cells; The natural receptor is an alpha2-beta2 tetramer processed from one precursor; also called IR; human IR
Experiment: flow cytometry competition with biotinylated RHI on IM-9 cells at 4 C
Protocol: Cultures of IM-9 cells were centrifuged at 250×g (˜1000 rpm) for 10 min to pellet the cells. Cells were washed once with HBSS or PBS buffer, resuspended in cold FACS staining medium (HBSS/2 mM EDTA/0.1% Na-azide+4% horse serum) to a concentration of 8×10^6 cells/mL and kept on ice or 4° C. until test solutions were made. The insulin-Fc protein was diluted in FACS buffer in 1:3 serial dilutions as 2× concentrations in 1.2 mL tubes (approx. 60 μL volume of each dilution), and the solutions were kept cold on ice until ready for pipetting.
Biotinylated-RHI was diluted in FACS staining medium to a concentration of 1.25 μg/mL. 40 μL of the serially diluted test compound and 8 μL of 1.25 μg/mL Biotin-RHI were added into each well of a V bottom microtiter plate, mixed by slow vortexing, and placed on ice. 40 μL of an IM-9 cell suspension (8×10^6 cells/mL) was then added to each well by multichannel pipette, mixed again gently and incubated on ice for 30 min to allow competitive binding on the insulin receptor on IM-9 cells. Cells were then washed twice with […], of ice-cold FACS wash buffer (HBSS/2 mM EDTA/0.1% Na-azide+0.5% horse serum) by centrifuging the V-bottom plate at 3000 rpm for 3 min and aspirating the supernatant. Cells were then resuspended in […], of FACS staining medium containing 1:100 diluted Streptavidin-PE (Life Technologies) for 20 min on ice. Cells were then washed once with 275 μL of ice-cold FACS buffer and finally fixed with 3% paraformaldehyde for 10 min at room temp. Cells were then washed once with 275 μL of ice-cold FACS buffer and resuspended in 250 μl of FACS buffer for analysis.
The V-bottom plates containing cells were then analyzed on a Guava 8-HT flow cytometer (Millipore). Biotinylated-RHI binding to insulin receptor was quantitated by the median fluorescence intensity (MFI) of the cells on the FACS FL-2 channel for each concentration of the test compound. Control wells were labeled only with biotinylated-RHI and were used to calculate the percent (%) inhibition resulting from each test compound concentration. The % inhibition by test compounds of biotinylated-RHI binding on IM-9 cells was plotted against log concentrations of the test compound, and the resulting IC50 values were calculated using GraphPad Prism (GraphPad Software, La Jolla, Calif.) for the test compounds.

T1 sequence (P06213 28-1382): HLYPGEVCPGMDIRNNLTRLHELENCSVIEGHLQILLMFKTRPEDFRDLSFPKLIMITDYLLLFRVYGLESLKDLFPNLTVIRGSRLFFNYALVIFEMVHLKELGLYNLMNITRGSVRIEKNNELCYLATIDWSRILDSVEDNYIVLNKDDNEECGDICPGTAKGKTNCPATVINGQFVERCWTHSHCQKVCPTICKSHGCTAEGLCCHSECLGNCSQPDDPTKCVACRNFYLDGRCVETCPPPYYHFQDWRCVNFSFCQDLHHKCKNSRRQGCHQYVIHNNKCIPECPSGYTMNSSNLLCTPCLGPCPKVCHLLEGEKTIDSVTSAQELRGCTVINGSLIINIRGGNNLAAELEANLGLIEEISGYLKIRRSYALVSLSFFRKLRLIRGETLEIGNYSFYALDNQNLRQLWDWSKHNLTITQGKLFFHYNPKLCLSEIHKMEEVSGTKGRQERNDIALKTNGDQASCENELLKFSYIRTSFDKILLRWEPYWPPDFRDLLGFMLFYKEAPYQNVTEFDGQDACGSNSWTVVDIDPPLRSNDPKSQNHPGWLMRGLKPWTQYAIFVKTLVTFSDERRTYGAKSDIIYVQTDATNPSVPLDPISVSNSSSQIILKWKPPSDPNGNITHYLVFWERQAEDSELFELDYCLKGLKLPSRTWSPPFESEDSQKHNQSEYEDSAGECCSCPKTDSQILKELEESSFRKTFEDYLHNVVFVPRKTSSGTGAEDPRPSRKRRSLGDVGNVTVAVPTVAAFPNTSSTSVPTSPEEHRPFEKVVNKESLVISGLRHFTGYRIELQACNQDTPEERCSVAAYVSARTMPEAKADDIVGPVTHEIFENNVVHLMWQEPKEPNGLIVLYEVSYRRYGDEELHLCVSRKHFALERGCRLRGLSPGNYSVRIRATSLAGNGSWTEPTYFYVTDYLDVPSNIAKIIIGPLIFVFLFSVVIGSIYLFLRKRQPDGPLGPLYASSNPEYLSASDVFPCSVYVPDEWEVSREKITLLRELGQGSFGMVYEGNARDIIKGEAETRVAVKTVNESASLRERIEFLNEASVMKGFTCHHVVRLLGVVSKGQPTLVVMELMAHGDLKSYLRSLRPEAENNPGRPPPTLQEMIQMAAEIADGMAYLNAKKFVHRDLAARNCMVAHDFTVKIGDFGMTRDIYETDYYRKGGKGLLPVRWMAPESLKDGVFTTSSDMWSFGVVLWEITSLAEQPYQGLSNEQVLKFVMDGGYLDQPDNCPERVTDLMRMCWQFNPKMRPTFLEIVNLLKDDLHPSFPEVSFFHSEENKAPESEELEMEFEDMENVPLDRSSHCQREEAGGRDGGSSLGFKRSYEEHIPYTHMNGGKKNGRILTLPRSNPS

B1: insulin-Fc fusion protein of SEQ ID NO: 20 (insulin polypeptide SEQ ID NO: 4, linker SEQ ID NO: 8, canine IgGA Fc fragment SEQ ID NO: 10) (Fc fusion)
chain: FVNQHLCGSDLVEALALVCGERGFFYTDPTGGGPRRGIVEQCCHSICSLYQLENYCNGGGGAGGGGRCTDTPPCPVPEPLGGPSVLIFPPKPKDILRITRTPEVTCVVLDLGREDPEVQISWFVDGKEVHTAKTQSREQQFNGTYRVVSVLPIEHQDWLTGKEFKCRVNHIDLPSPIERTISKARGRAHKPSVYVLPPSPKELSSSDTVSITCLIKDFYPPDIDVEWQSNGQQEPERKHRMTPPQLDEDGSYFLYSKLSVDKSRWQQGDPFTCAVMHETLQNHYTDLSLSHSPG
For B1, which IC50 is on record?
The IC50 was 2730 nM.

B2: insulin-Fc fusion protein of SEQ ID NO: 24 (insulin polypeptide SEQ ID NO: 4, linker SEQ ID NO: 8, canine IgGB Fc fragment SEQ ID NO: 11) (Fc fusion)
chain: FVNQHLCGSDLVEALALVCGERGFFYTDPTGGGPRRGIVEQCCHSICSLYQLENYCNGGGGAGGGGDCPKCPAPEMLGGPSVFIFPPKPKDTLLIARTPEVTCVVVDLDPEDPEVQISWFVDGKQMQTAKTQPREEQFNGTYRVVSVLPIGHQDWLKGKQFTCKVNNKALPSPIERTISKARGQAHQPSVYVLPPSREELSKNTVSLTCLIKDFFPPDIDVEWQSNGQQEPESKYRTTPPQLDEDGSYFLYSKLSVDKSRWQRGDTFICAVMHEALHNHYTQESLSHSPG
notes: Made in HEK293 cells; Disulfide-linked homodimer, 93% homodimer; Glycosylated at cNg-NB139
How did the IC50 turn out when B2 was run?
Its IC50 is 28 nM.

B3: insulin-Fc fusion protein of SEQ ID NO: 27 (SEQ ID NO: 24 with the mutation cNg-NB139-S; canine IgGB Fc fragment SEQ ID NO: 14) (Fc fusion)
chain: B2 chain with N139S
notes: Made in HEK293 cells; Non-glycosylated homodimer, 98.3% homodimer; also called cNg-S
How did the IC50 turn out when B3 was run?
The IC50 was 145 nM.

B4: insulin-Fc fusion protein of SEQ ID NO: 29 (SEQ ID NO: 24 with des hinge D and the mutation cNg-NB138-K; canine IgGB Fc fragment SEQ ID NO: 15) (Fc fusion)
chain: FVNQHLCGSDLVEALALVCGERGFFYTDPTGGGPRRGIVEQCCHSICSLYQLENYCNGGGGAGGGGCPKCPAPEMLGGPSVFIFPPKPKDTLLIARTPEVTCVVVDLDPEDPEVQISWFVDGKQMQTAKTQPREEQFKGTYRVVSVLPIGHQDWLKGKQFTCKVNNKALPSPIERTISKARGQAHQPSVYVLPPSREELSKNTVSLTCLIKDFFPPDIDVEWQSNGQQEPESKYRTTPPQLDEDGSYFLYSKLSVDKSRWQRGDTFICAVMHEALHNHYTQESLSHSPG
notes: Made in HEK293 cells; Non-glycosylated homodimer, 98.1% homodimer; also called cNg-K
B4 was tested. Which IC50 did it give?
The IC50 was 147 nM.
